Experimental data taken from patent US9765303B2, “Method for the production of differentiated respiratory epithelial cells” (MEDIZINISCHE HOCHSCHULE HANNOVER, priority 2011, dated 2017).

Tested on: surfactant protein C (SP-C)
Assay: qRT-PCR of SP-C mRNA in day 24 pluripotent stem cell differentiation cultures
Assay type: cell-based, murine
Conditions: KGF alone; start on day 0 of differentiation compared to later supplementation
Procedure: This method is based on our 2008 published differentiation protocol^3. To initiate embryoid body (EB) formation “hanging drops” composed of 6×10^2 cells in 20 μl of differentiation medium were generated (day 0 of differentiation). At day 3 of differentiation, EBs (100 EBs/dish) were transferred to non-adherent petri dishes (Greiner) and cultivated in suspension for two additional days. At day 5 of differentiation, 10 EBs/well were seeded on a 0.1% gelatin-coated 6-well culture dish and cultured until day 24 of differentiation. From day 0 to 7 the basal differentiation medium was composed of Iscove's Modified Dulbecco's Medium (IMDM, Invitrogen), 0.2 mM L-glutamine, 0.1 mM β-mercaptoethanol, 0.1 mM non-essential amino acid stock supplemented with 15% FCS and from day 7 to 24 supplemented with 15% serum replacement (Knockout™ SR, Invitrogen). […]
The differentiation medium was replaced by fresh medium every two to three days. The differentiation was stopped on day 24 and differentiation cultures were analyzed for the presence of lung epithelial cells.
qRT-PCR was used to quantify mRNA expression of typical lung epithelial markers, in particular for bronchial/bronchiolar and alveolar epithelial cells. […]

B1: KGF: recombinant human keratinocyte growth factor (Amgen), also referred to as fibroblast growth factor-7 (protein, UniProt P21781 32-194, looked up)
Fibroblast growth factor 7: CNDMTPEQMATNVNCSSPERHTRSYDYMEGGDIRVRRLFCRTQWYLRIDKRGKVKGTQEMKNNYNIMEIRTVAVGIVAIKGVESEFYLAMNKEGKLYAKKECNEDCNFKELILENHYNTYASAKWTHNGGEMFVALNQKGIPVRGKKTKKEQKTAHFLPMAIT
For B1, the “SP-C expression by start of KGF supplementation” value was “highest expression”.
